Values of other authors in article PMC4476730.
pKd: −log10 of the molar value. Like-named read-outs stand apart in the source and are kept apart here.

Tests used:
[1] = target: CBP KIX (Homo sapiens) (UniProt Q92793)
[2] = target: CBP KIX (Homo sapiens) (UniProt Q92793); remark: listed apart in the source

Chain of UniProt Q92793 (Q92793 584-669): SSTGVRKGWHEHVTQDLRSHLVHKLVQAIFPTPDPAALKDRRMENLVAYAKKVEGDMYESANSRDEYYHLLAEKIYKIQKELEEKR

pKd [1]: 5.14 | pKd [2]: 4.77
Substance: E2A AD2 (from UniProt P15923)
